A word on the Km: it is the concentration of substrate that gives half-maximal velocity.

This data set in a line: Standard protocol for determination of kcat and KM (continuous spectrophotometric assay, Acetyl CoA hydrolysis at 235 nm). The conditions noted are these: purified protein, about 23° C., 0.2 mM acetyl CoA; for Kcat: 20 mM HEPES pH 6.8, 10% ethylene glycol; for Km: pH 6.8, glyphosate 0.125 to 10 mM. Type of data set: biochemical. As to the method:
KM was calculated from the initial reaction rates obtained from concentrations of glyphosate ranging from 0.125 to 10 mM, using the Lineweaver-Burke transformation of the Michaelis-Menten equation. kcat/KM was determined by dividing the value determined for kcat by the value determined for KM.
Using this methodology, kinetic parameters for a number of GAT polypeptides exemplified herein were determined. For example, the kcat, KM and kcat/KM for the GAT polypeptide corresponding to SEQ ID NO:445 have been determined to be 322 min^−1, 0.5 mM and 660 mM^−1 min^−1, respectively, using the assay conditions described above. The kcat, KM and kcat/KM for the GAT polypeptide corresponding to SEQ ID NO:457 have been determined to be 118 min^−1, 0.1 mM and 1184 mM^−1 min^−1, respectively, using the assay conditions described above. The kcat, KM and kcat/KM for the GAT polypeptide corresponding to SEQ ID NO:300 have been determined to be 296 min^−1, 0.65 mM and 456 mM^−1 min^−1, respectively, using the assay conditions described above. One of skill in the art can use these numbers to confirm that a GAT activity assay is generating kinetic parameters for a GAT suitable for comparison with the values given herein. For example, the conditions used to compare the activity of GATs should yield the same kinetic constants for SEQ ID NO: 300, 445 and 457 (within normal experimental variance) as those reported herein, when the conditions are used to compare a test GAT with the GAT polypeptides exemplified herein. Kinetic parameters for a number of GAT polypeptide variants were determined according to this methodology and are provided in Table 3.

B1: SEQ ID NO: 372: GAT polypeptide (protein)
chain: MIEVKPINAEDTYEIRHRILRPNQPLEACKYETDLLGGTFHLGGYYRGKLISIASFHQAEHPELEGQKQYQLRGMATLEGYREQKAGSTLIRHAEELLRKKGADLLWCNARTSASGYYKKLGFSEQGGVYDIPPIGPHILMYKKLA
modifications: 4B_19C8
notes: GAT polypeptide
Regarding B1, the Kcat is 0.265 s⁻¹ and the Km came to 1200 µM.

B2: SEQ ID NO: 382: GAT polypeptide (protein)
chain: MIEVKPINAEDTYEIRHRILRPNQPLEACKYETDLLGGTFHLGGYYRGKLISIASFHQAEHSELEGQKQYQLRGMATLEGYREQKAGSTLIRHAEELLRKKGADLLWCNARTSASGYYKKLGFSEQGEVYDIPPVGPHILMYKKLT
modifications: 6_15G7
notes: GAT polypeptide
In the case of B2, the Kcat is 0.807 s⁻¹ and the Km worked out at 1300 µM.

B3: SEQ ID NO: 378: GAT polypeptide (protein)
chain: MIEVKPINAEDTYEIRHRILRPNQPLEACMYETDLLGGTFHLGGYYRGKLISIASFHQAEHSELEGQKQYQLRGMATLEGYREQKAGSTLIRHAEELLRKKGADLLWCNARTSVSGYYKKLGFSEQGEVYDIPPIGPHILMYKKLT
modifications: 4B_7E8
notes: GAT polypeptide
Turning to B3, the Kcat worked out at 0.342 s⁻¹ and the Km amounted to 1200 µM.

B4: SEQ ID NO: 385: GAT polypeptide (protein)
chain: MIEVKPINAEDTYEIRHRILRPNQPLEACKYEADLLGGTFHLGGYYRGKLISIASFHQAEHPELEGQKQYQLRGMATLEGNREQKAGSTLIRHAEELLRKKGADLLWCNARTSASGYYKKLGFSEQGEVYDVPPIGPHILMYKKLT
modifications: 6_17C5
notes: GAT polypeptide
B4: the Kcat was found to be 0.587 s⁻¹ and the Km was 1300 µM.

B5: SEQ ID NO: 381: GAT polypeptide (protein)
chain: MIEVKPINAEDTYEIRHRILRPNQPLEACMYETDLLGGTFHLGGYYRGKLISIASFHQAEHSELEGHKQYQLRGMATLEEYREQKAGSTLIRHAEELLRKKGADLLWCNARTSASGYYKKLGFSEQGGVYDIPPVGPHILMYKKLT
modifications: 6_14D10
notes: GAT polypeptide
B5: the Kcat was 0.703 s⁻¹ and the Km is 1500 µM.

B6: SEQ ID NO: 388: GAT polypeptide (protein)
chain: MIEAKPINAEDTYEIRHRILRPNQPLEACMYETDLLGGTFHLGGYYRGKLISIASFHQAEHPELEGQKQYQLRGMATLEGYREQKAGSTLIRHAEELLRKKGADLLWCNARTSASGYYKKLGFSEQGEVYDIPPTGPHILMYKKLT
modifications: 6_19A10
notes: GAT polypeptide
For B6, the Kcat was found to be 1.45 s⁻¹ and the Km turned out to be 1900 µM.

B7: SEQ ID NO: 377: GAT polypeptide (protein)
chain: MIEVKPINAEDTYEIRHRILRPNQPLEACKYETDLLGGTFHLGGYYRGKLISIASFHQAEHSELEGQKQYQLRGMATLEGYREQKAGSTLIRHAEELLRKKGADLLWCNARTSASGYYKKLGFSEHGEVYDIPPIGPHILMYKKLT
modifications: 4B_6D8
notes: GAT polypeptide
As to B7, the Kcat amounted to 0.378 s⁻¹ and the Km came out at 1500 µM.

B8: SEQ ID NO: 386: GAT polypeptide (protein)
chain: MIEVKPINAEDTYEIRHRILRPNQPLEACRYETDLLGGTFHLGGYYRGKLISIASFHQAEHPELEGQKQYQLRGMATLEGYREQKAGSTLIRHAEELLRKKGADLLWCNARISASGYYKKLGFSEQGEVYDIPPVGPHILMYKKLT
modifications: 6_18C7
notes: GAT polypeptide
As to B8, the Kcat came to 0.537 s⁻¹ and the Michaelis-Menten constant (Km) was 1200 µM.

B9: SEQ ID NO: 269: GAT polypeptide (protein)
chain: MIEVKPINAEDTYEIRHRILRPNQPLEACKYETDLLGGTLHLGGYYRGKLISIASFHQAEHPELEGQKQYQLRGMATLEEYREQKAGSTLIRHAEELLRKKGADLLWCNARTSASGYYKKLGFSEQGEVYDIPPTGPHILMYKKLT
modifications: 10_12D7
notes: GAT polypeptide
With B9, the Kcat worked out at 1.29 s⁻¹ and the Km was determined as 1800 µM.

B10: SEQ ID NO: 268: GAT polypeptide (protein)
chain: MIEVKPINAEDTYEIRHRILRPNQPLEACMYETDLLRGAFHLGGYYRGKLISIASFHQAEHSELEGQKQYQLRGMATLEGYREQKAGSTLIRHAEELLRKKGADLLWCNARTSASGYYKKLGFSEQGEVYDTPPVGPHILMYKKLT
modifications: CHIMERA
notes: GAT polypeptide
As for B10, the Kcat was determined as 2.59 s⁻¹ and the Michaelis-Menten constant (Km) was 1300 µM.

B11: SEQ ID NO: 383: GAT polypeptide (protein)
chain: MIEVKPINAEDTYEIRHRILRPNQPLEACKYETDLLGGTFHLGGYYRGKLISIASFHQAEHSELEGQKQYQLRGMATLEGYREQKAGSTLIRHAEELLRKKGADLLWCNARTSASGYYKKLGFSEQGGVYDIPPVGPHILMYKKLT
modifications: 6_16A5
notes: GAT polypeptide
Consider B11, for which the Kcat turned out to be 0.73 s⁻¹ and the Km came out at 1100 µM.

B12: SEQ ID NO: 380: GAT polypeptide (protein)
chain: MIEVKPINAEDTYEIRHRILRPNQPLEACMYETDLLGGAFHLGGYYQGKLISIASFHQAVHSELEGQKQYQLRGMATLEGYREQKAGSTLIRHAEELLRKKGADLLWCNARTSVSGYYKKLGFSEQGGVYDIPPIGPHILMYKKLT
modifications: 4H1
notes: GAT polypeptide
B12: the Kcat was 0.0217 s⁻¹ and the Km is 1400 µM.

B13: SEQ ID NO: 374: GAT polypeptide (protein)
chain: MIEVKPINAEDTYEIRHRILRPNQPLEACMYETDLLGGTFHLGGYYRGKLISIASFHQAEHSELEGQKQYQLRGMATLEEYREQKAGSTLIRHAEELLRKKGADLLWCNARISASGYYKKLGFSEQGGVYDIPPIGPHILMYKKLT
modifications: 4B_21C6
notes: GAT polypeptide
B13: the Kcat is 0.197 s⁻¹ and the Km amounted to 800 µM.

B14: SEQ ID NO: 379: GAT polypeptide (protein)
chain: MIEVKPINAEDTYEIRHRILRPNQPLEACMYETDLLRGAFHLGGYYRGKLISIASFHQAEHPELEGQKQYQLRGMATLEGYREQKAGSTLIRHAEELLRKKGADLLWCNARTSASGYYEKLGFSEQGEVYDIPPIGPHILMYKKLT
modifications: 4C_8C9
notes: GAT polypeptide
Take B14: the Kcat amounted to 0.15 s⁻¹ and the Km was found to be 600 µM.

B15: SEQ ID NO: 384: GAT polypeptide (protein)
chain: MIEVKPINAEDTYEIRHRILRPNQPLEACMYETDLLGGTFHLGGYYRGKLISIASFHQAVHSELEGQKQYQLRGMATLEGYREQKAGSTLIRHAEELLRKKGADLLWCNARTSASGYYKKLGFSEQGGVYDIPPVGPHILMYKKLT
modifications: 6_16F5
notes: GAT polypeptide
Take B15: the Kcat was 0.587 s⁻¹ and the Km was 1000 µM.

B16: SEQ ID NO: 389: GAT polypeptide (protein)
chain: MIEVKPINAEDTYEIRHRILRPNQPLEACMYETDLLRGAFHLGGYYRGKLISIASFHQAEHSELEGQKQYQLRGMATLEGYREQKAGSTLIRHAEELLRKKGADLLWCNARTSASGYYKKLGFSEQGEVYDIPPVGPHILMYKKLT
modifications: 6_19B6
notes: GAT polypeptide
Consider B16, for which the Kcat is 0.398 s⁻¹ and the Km came to 700 µM.

B17: SEQ ID NO: 373: GAT polypeptide (protein)
chain: MIEVKPINAEDTYEIRHRILRPNQPLEACKYETDLLGGAFHLGGYYRGKLISIASFHQSEHPELEGQKQYQLRGMATLEGYRELKAGSTLIRHAEELLRKKGADLLWCNARISASGYYKKLGFSEQGEVYDIPPIGPHILMYKKLT
modifications: 4B_1G4
notes: GAT polypeptide
On to B17, for which the Kcat turned out to be 0.0617 s⁻¹ and the Km was 1000 µM.

B18: SEQ ID NO: 376: GAT polypeptide (protein)
chain: MIEAKPINAEDTYEIRHRILRPNQPLEACKYETDLLGGTFHLGGYYRGKLISIASFHQAEHSELEGQKQYQLRGMATLEGYREQKAGSTLIRHAEELLRKKGADLLWCNARTSASGYYKKLGFSEQGEVYDIPPIGPHILMYKKLT
modifications: 4B_2H8
notes: GAT polypeptide
With B18, the Kcat stood at 0.638 s⁻¹ and the Michaelis constant (Km) came out at 1200 µM.

B19: SEQ ID NO: 387: GAT polypeptide (protein)
chain: MIEVKPINAEDTYEIRXRILRPNQPLEACMYETDLLGGTFHLGGYYRGKLISIASFHQAEHPELEGQKQYQLRGMATLEGYREQKAGSTLIRHAEELLRKKGADLLWCNARTSASGYYKKLGFSEQGGVYDIPPVGPHILMYKKLT
modifications: X: residue not identified in the source; ends and bridges not checked
notes: GAT polypeptide
As to B19, the Kcat came out at 0.717 s⁻¹ and the Km came to 1200 µM.

B20: SEQ ID NO: 375: GAT polypeptide (protein)
chain: MIEVKPINAEDTYEIRHRILRPNQPLEACMYETDLLGGTFHLGGYYRGKLISIASFHQAEHSELEGQKQYQLRGMATLEGYREQKAGSTLIRHAEELLRKKGADLLWCNARTSASGYYKKLGFSEQGGVYGIPPIGPHILMYKKLT
modifications: 4B_2H7
notes: GAT polypeptide
As for B20, the Kcat came to 0.45 s⁻¹ and the Km was found to be 6200 µM.
